Where two headings read alike, the source gives them in different places.
T1: Importin β (Kap95p), scImpβ-His6 (yeast, UniProt Q06142 1-861)
T1 sequence (looked up): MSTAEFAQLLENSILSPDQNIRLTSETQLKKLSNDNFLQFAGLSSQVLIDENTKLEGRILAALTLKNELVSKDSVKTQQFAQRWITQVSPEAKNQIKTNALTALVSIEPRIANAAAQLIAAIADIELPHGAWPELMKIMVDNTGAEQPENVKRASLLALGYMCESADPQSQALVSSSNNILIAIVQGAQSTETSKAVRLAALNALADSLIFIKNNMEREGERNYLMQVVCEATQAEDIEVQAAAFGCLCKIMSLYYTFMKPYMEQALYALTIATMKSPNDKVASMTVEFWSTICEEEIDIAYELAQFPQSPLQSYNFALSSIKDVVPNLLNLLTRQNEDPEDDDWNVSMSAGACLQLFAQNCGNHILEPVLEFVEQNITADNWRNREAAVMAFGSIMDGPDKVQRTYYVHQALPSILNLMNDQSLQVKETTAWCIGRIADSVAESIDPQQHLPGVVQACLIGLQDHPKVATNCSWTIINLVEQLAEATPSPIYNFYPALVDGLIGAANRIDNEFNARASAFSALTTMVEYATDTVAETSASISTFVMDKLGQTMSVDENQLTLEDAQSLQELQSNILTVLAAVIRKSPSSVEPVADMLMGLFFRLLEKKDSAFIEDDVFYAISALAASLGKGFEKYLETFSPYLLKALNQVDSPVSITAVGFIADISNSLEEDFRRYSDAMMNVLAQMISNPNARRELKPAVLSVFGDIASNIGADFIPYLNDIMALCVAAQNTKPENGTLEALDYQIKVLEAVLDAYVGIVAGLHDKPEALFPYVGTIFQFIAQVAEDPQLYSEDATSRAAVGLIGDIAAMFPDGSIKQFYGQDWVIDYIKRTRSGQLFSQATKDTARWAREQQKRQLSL


What was measured:
[1] = biological target: T1, Importin β (Kap95p), scImpβ-His6; test: SEC
[2] = biological target: T1, Importin β (Kap95p), scImpβ-His6; test: SEC; remark: listed apart in the source

binding result [1]	binding result [2]	Binder
binds		IBB-MBP-mEGFP (domain or fragment, Saccharomyces cerevisiae, UniProt Q02821 2-63, looked up) DNGTDSSTSKFVPEYRRTNFKNKGRFSADELRRRRDTQQVELRKAKRDEALAKRRNFIPPTD
	binds	IBB-ZsGreen (domain or fragment, Saccharomyces cerevisiae, UniProt Q02821 2-63, looked up) DNGTDSSTSKFVPEYRRTNFKNKGRFSADELRRRRDTQQVELRKAKRDEALAKRRNFIPPTD
